Experimental findings from patent US20220000984A1 (JIANGSU GENSCIENCES, published 2022) are described below.

B1: GLP1-L1-Fc2-L2-ST (Fc fusion)
chain: HGEGTFTSDVSSYLEEQAAKEFIAWLVKGGGGGGGSGGGGSGGGGSAVECPPCPAPPVAGPSVFLFPPKPKDTLMISRTPEVTCVVVDVSHEDPEVQFNWYVDGVEVHNAKTKPREEQFNSTFRVVSVLTVVHQDWLNGKEYKCKVSNKGLPAPIEKTISKTKGQPREPQVYTLPPSREEMTKNQVSLTCLVKGFYPSDIAVEWESNGQPENNYKTTPPMLDSDGSFFLYSKLTVDKSRWQQGNVFSCSVMHEALHNHYTQKSLSLSPGGSGGGSGGGGSGGGGSLPETG
B2: GLP1-L1-Fc2-L2-ST crosslinked with 20 kDa PEG (Fc fusion)
chain: HGEGTFTSDVSSYLEEQAAKEFIAWLVKGGGGGGGSGGGGSGGGGSAVECPPCPAPPVAGPSVFLFPPKPKDTLMISRTPEVTCVVVDVSHEDPEVQFNWYVDGVEVHNAKTKPREEQFNSTFRVVSVLTVVHQDWLNGKEYKCKVSNKGLPAPIEKTISKTKGQPREPQVYTLPPSREEMTKNQVSLTCLVKGFYPSDIAVEWESNGQPENNYKTTPPMLDSDGSFFLYSKLTVDKSRWQQGNVFSCSVMHEALHNHYTQKSLSLSPGGSGGGSGGGGSGGGGSLPETGGGAA
modifications: 20 kDa PEG on the added C-terminal GGGAA (GGGAA-PEG joined by sortase A to the T of LPET)
B3: GLP1-L1-Fc2-L2-ST crosslinked with 40 kDa PEG (Fc fusion)
chain: B2 chain
modifications: 40 kDa PEG on the added C-terminal GGGAA (GGGAA-PEG joined by sortase A to the T of LPET)

The target in the test is GLP-1 receptor (GLP-1R) on HEK293/CRE-Luc/GLP1R cells (UniProt P43220 24-463, limits assumed). Kind of test: cell-based or functional assay.
Consider B1, for which the “relative activity compared with dulaglutide (CRE-luciferase reporter, HEK293/CRE-Luc/GLP1R cells)” value stood at 98.1%.
In the case of B2, the “relative activity compared with dulaglutide (CRE-luciferase reporter, HEK293/CRE-Luc/GLP1R cells)” value was found to be 40.4%.
On to B3, for which the “relative activity compared with dulaglutide (CRE-luciferase reporter, HEK293/CRE-Luc/GLP1R cells)” value turned out to be 32.9%.
